# According to patent US20200239555A1 (STATEN BIOTECHNOLOGY B V, published 2020):
# How the values were obtained:
# [1] = biological target: T1, biotinylated native human ApoC3 (human, UniProt P02656 21-99, biotinylated (site not stated)); experiment: SPR, IgG1 over biotinylated ApoC3 on SA chip
# T1 construct: also called biotinylated human ApoC3
# Method: (§1) Biotinylated native human ApoC3 was captured on a streptavidin coated SPR chip (GE Healthcare, cat. nr. BR100032) at pH 7.4, in accordance with the method provided by Biacore, by injection of 20 μl 10 μg/ml biotinylated native human ApoC3 reaching the surface density of approximately 500 RU. 60 μL of test antibody in 1-50 nM range diluted in HBS-EP buffer (GE, cat # BR-1008-26; 0.010 M HEPES, 0.150M NaCl, 3 mM EDTA, 0.05% (v/v) surfactant P20, pH 7.4) was injected and passed through the flow cells at a flow rate of 30 μl/min, followed by an off-rate wash at pH7.4 for 5 min. After the dissociation, the flow cell surfaces were regenerated by injecting 10 μl of 10 mM NaOH/1 M NaCl and 10 μl of 10 mM glycine at pH1.5. The assay was repeated at pH5.5 using the same general protocol, where the running and sample dilution buffer was replaced by a HBS-EP buffer supplemented with citrate buffer to 10 mM final concentration and pH adjusted to 5.5.
# (§2) The resulting sensorgrams were analyzed using the BIAevaluation 4.1 software using Langmuir 1:1 binding model to derive binding kinetics. Data was zero adjusted and the reference cell sensorgrams were subtracted. Sensorgrams were double referenced to no-analyte blank assay. Fitted parameters were considered not applicable if off-rate values were below the equipment's detection limit of kd: 1×10⁻⁶ 1/s.
# [2] = biological target: T1, biotinylated native human ApoC3; experiment: SPR, IgG1 over biotinylated ApoC3 on SA chip, pH 7.4
# Method: as §1, §2
# [3] = biological target: T1, biotinylated native human ApoC3; experiment: SPR, IgG1 over biotinylated ApoC3 on SA chip, pH 5.5
# Method: as §1, §2
# native human ApoC3 [4] = biological target: T2, native human ApoC3 (human, UniProt P02656 21-99); experiment: SPR, ApoC3 over captured IgG1, pH 7.4; pH 7.4; ApoC3 600-50 nM over immobilized antibody
# T2 construct: also called nhuApoC3; native huApoC3
# Method: (§3) An inverted SPR assay was designed in which a test antibody was captured on an SPR chip, human ApoC3 protein was injected, and binding of ApoC3 to the antibody was measured. […] The immobilization was performed in accordance with the method provided by Biacore/GE using the NHS/EDC kit (Biacore AB, Cat.nr. BR-1000-50): after activation of the chip, a solution of 30 μg/ml of anti-human Fcγ antibody in 10 mM acetate buffer with pH of 5.0 was prepared and injected until the surface density reached approximately 10000 RU. The analytical cycle comprised the following steps:
# (§4) The resulting sensorgrams were analyzed using the BIAevaluation 4.1 software using Langmuir 1:1 binding model to derive binding kinetics. Data was zero adjusted, the reference cell sensorgrams were subtracted and the no analyte blank assay was used for double referencing the sensorgrams corresponding to the analyte injections. The dissociation and association phase sensorgrams were fitted separately for the 4 different concentration curves. Sensorgrams were excluded from the fitting if maximum RU values reached were below the detection limit of the equipment (<5 RU), Biacore 3000 (Biacore AB).
# [5] = biological target: T1, biotinylated native human ApoC3; experiment: SPR, scFv-Fc over biotinylated ApoC3 on SA chip, pH 7.4
# [6] = biological target: T1, biotinylated native human ApoC3; experiment: SPR, scFv-Fc over biotinylated ApoC3 on SA chip
# [7] = biological target: T1, biotinylated native human ApoC3; experiment: SPR, scFv-Fc over biotinylated ApoC3 on SA chip, pH 5.5
# native human ApoC3 [8] = biological target: T2, native human ApoC3; experiment: SPR, IgG1 over ApoC3 on CM5 chip, pH 7.4
# Method: (§5) Based on the results in Example 1, test scFv-Fc antibodies were generated as human IgG₁ antibodies. An SPR-based assay was employed, in which human ApoC3 protein was immobilized on a CM5 chip, and the binding kinetics of test antibodies to the coated chip were measured at both pH 7.4 and pH 5.5. Briefly, a solution of 50 μg/ml of native human ApoC3 in 10 mM acetate buffer at pH 4.5 was prepared and injected until the surface density reached approximately 500 RU. 60 μl of each test antibody was diluted in HBS-EP buffer (GE, cat. nr. BR-1008-26; 0.010 M HEPES, 0.150M NaCl, 3 mM EDTA, 0.05% (v/v) surfactant P20, pH 7.4), and was injected at a concentration as described in Table 9. The test antibodies were passed through the flow cells at a flow rate of 30 μl/min, followed by an off-rate wash at pH 7.4 or pH 5.5 for 5 min. The resulting sensorgrams were analyzed using the BIAevaluation 4.1 software applying the Langmuir 1:1 binding model to derive binding kinetics. Data was zero adjusted and the reference cell sensorgrams were subtracted.
# native human ApoC3 [9] = biological target: T2, native human ApoC3; experiment: SPR, IgG1 over ApoC3 on CM5 chip, pH 5.5
# Method: as §5
# native human ApoC3 [10] = biological target: T2, native human ApoC3; experiment: SPR, ApoC3 over captured IgG1, pH 7.4
# Method: as §3, §4
# T2 sequence (P02656 21-99): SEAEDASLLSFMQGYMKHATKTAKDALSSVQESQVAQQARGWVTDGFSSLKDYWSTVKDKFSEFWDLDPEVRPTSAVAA
# T1 sequence (P02656 21-99): as above
KD pH5.5/KD pH7.4 [1],Ka [2] [M⁻¹],koff [2] [s⁻¹],kon [2] [M⁻¹ s⁻¹],Ka [3] [M⁻¹],koff [3] [s⁻¹],kon [3] [M⁻¹ s⁻¹],Kd [5] [nM],koff [5] [s⁻¹],kon [5] [M⁻¹ s⁻¹],KD pH 5.5/KD pH 7.4 [6],koff [7] [s⁻¹],kon [7] [M⁻¹ s⁻¹],koff (native human ApoC3 [8]) [s⁻¹],kon (native human ApoC3 [8]) [M⁻¹ s⁻¹],koff (native human ApoC3 [9]) [s⁻¹],kon (native human ApoC3 [9]) [M⁻¹ s⁻¹],Binder,further results
1.33,2.38e+08,0.000461,110000,1.8e+08,0.00267,479000,–,–,–,–,–,–,–,–,–,–,"mAb13 (antibody, IgG1, V domains shown, Produced as full length IgG1 (kappa) in ExpiCHO-S cells; CDR graft into the closest human germline frameworks; also called humanized anti-ApoC3 antibody mAb13; variant 13) VH: QLLESGGGLVQPGGSLRLSCAASGFTFSTYSMRWVRQVPGKGLEWVSSIHTEGGGTAYRDSVKGRFTISRDNSKNTLYLQMNSLRAEDTAVYYCVIAGYSDWGQGTLVTVSS VL: DIVMTQSPLSLPVTPGEPASISCKTSQGLVHSDGKTYFYWYLQKPGQSPQLLIYQVSNRASGVPDRFSGSGSGTDFTLKISRVEAEDVGVYYCAHGTYYPHTFGQGTRLEIK",Ka (native human ApoC3 [4]): 998000 M⁻¹; koff (native human ApoC3 [4]): 0.037 s⁻¹; kon (native human ApoC3 [4]): 37000 M⁻¹ s⁻¹
7.2,3.38e+08,0.000427,144000,4.7e+07,0.00788,370000,–,–,–,–,–,–,–,–,–,–,"mAb14 (antibody, IgG1, V domains shown, Produced as full length IgG1 (kappa) in ExpiCHO-S cells; CDR graft into the closest human germline frameworks; also called humanized anti-ApoC3 antibody mAb14; variant 14) VH: QLLESGGGLVQPGGSLRLSCAASGFTFGTYSMRWVRQVPGKGLEWVSSIHTEGGGTAYRDSVKGRFTISRDNSKNTLYLQMNSLRAEDTAVYYCVIAGYSDWGQGTLVTVSS VL: DIVMTQSPLSLPVTPGEPASISCKTSQGLVHSDGKTYFYWYLQKPGQSPQLLIYQVSNRASGVPDRFSGSGSGTDFTLKISRVEAEDVGVYYCAHGTYYPHTFGQGTRLEIK",Ka (native human ApoC3 [4]): 567000 M⁻¹; koff (native human ApoC3 [4]): 0.0458 s⁻¹; kon (native human ApoC3 [4]): 26000 M⁻¹ s⁻¹
–,–,–,–,–,–,–,0.02,1.75e-05,823000,3,2.53e-05,393000,–,–,–,–,"5E5WT scFv-Fc (scFv, part only; not given: Linker, domain order, Fc, V domains shown, not shown: another chain or arm of the molecule; a dimerising Fc or GST; small tags and cut ends) VH: QLQLVESGGGLVQPGGSLRLSCAASGFTFGTYSMRWVRQVPRKALEWVSSISTDGGGTAYRDSVKGRFTISRDNAKNTLYLQMNNLKPEDTAIYYCVIAGYSDWGQGTQVTVSS VL: ATMLTQSPGSLSVVPGESASISCKTSQGLVHSDGKTYFYWFLQKPGQSPQQLIYQVSNRASGVPDRFTGSGSGTDFTLKISGVKAEDAGVYYCAQGTYYPHTFGSGTRLEIK",Kd [7]: 0.06 nM
–,–,–,–,–,–,–,0.59,0.000105,178000,18.5,0.0016,147000,–,–,–,–,"5E5VH5_VLWT scFv-Fc (scFv, part only; not given: Linker, domain order, Fc, V domains shown, not shown: another chain or arm of the molecule; a dimerising Fc or GST; small tags and cut ends) VH: QLQLVESGGGLVQPGGSLRLSCAASGFTFGTYSMRWVRQVPRKALEWVSSIHTDGGGTAYRDSVKGRFTISRDNAKNTLYLQMNNLKPEDTAIYYCVIAGYSDWGQGTQVTVSS VL: ATMLTQSPGSLSVVPGESASISCKTSQGLVHSDGKTYFYWFLQKPGQSPQQLIYQVSNRASGVPDRFTGSGSGTDFTLKISGVKAEDAGVYYCAQGTYYPHTFGSGTRLEIK",–
–,–,–,–,–,–,–,0.51,0.000157,308000,31.4,0.00206,129000,–,–,–,–,"5E5VH12_VLWT scFv-Fc (scFv, part only; not given: Linker, domain order, Fc, V domains shown, not shown: another chain or arm of the molecule; a dimerising Fc or GST; small tags and cut ends) VH: QLQLVESGGGLVQPGGSLRLSCAASGFTFGTYSMRWVRQVPRKALEWVSSISTDGGGTAYRDSVKGRFTISRDNAKNTLYLQMNNLKPEDTAIYYCVIHGYSDWGQGTQVTVSS VL: ATMLTQSPGSLSVVPGESASISCKTSQGLVHSDGKTYFYWFLQKPGQSPQQLIYQVSNRASGVPDRFTGSGSGTDFTLKISGVKAEDAGVYYCAQGTYYPHTFGSGTRLEIK",Kd [7]: 16 nM
–,–,–,–,–,–,–,–,–,–,–,–,–,0.000163,267000,0.00165,188000,"5E5VH12_VL8 human IgG1 (antibody, V domains shown, Tested as human IgG1) VH: QLQLVESGGGLVQPGGSLRLSCAASGFTFGTYSMRWVRQVPRKALEWVSSISTDGGGTAYRDSVKGRFTISRDNAKNTLYLQMNNLKPEDTAIYYCVIHGYSDWGQGTQVTVSS VL: ATMLTQSPGSLSVVPGESASISCKTSQGLVHSDGKTYFYWFLQKPGQSPQQLIYQVSNRASGVPDRFTGSGSGTDFTLKISGVKAEDAGVYYCAHGTYYPHTFGSGTRLEIK",–
–,–,–,–,–,–,–,–,–,–,–,–,–,2.84e-05,782000,4.06e-05,731000,"5E5VHWT_VL8 human IgG1 (antibody, V domains shown) VH: QLQLVESGGGLVQPGGSLRLSCAASGFTFGTYSMRWVRQVPRKALEWVSSISTDGGGTAYRDSVKGRFTISRDNAKNTLYLQMNNLKPEDTAIYYCVIAGYSDWGQGTQVTVSS VL: ATMLTQSPGSLSVVPGESASISCKTSQGLVHSDGKTYFYWFLQKPGQSPQQLIYQVSNRASGVPDRFTGSGSGTDFTLKISGVKAEDAGVYYCAHGTYYPHTFGSGTRLEIK",–
11.7,1.03e+09,0.000173,177000,8.74e+07,0.00242,211000,–,–,–,–,–,–,0.000173,177000,0.00242,211000,"5E5VH5_VL8 human IgG1 (antibody, V domains shown, Tested as human IgG1; the tested lot is not tied to them in words) VH: QLQLVESGGGLVQPGGSLRLSCAASGFTFGTYSMRWVRQVPRKALEWVSSIHTDGGGTAYRDSVKGRFTISRDNAKNTLYLQMNNLKPEDTAIYYCVIAGYSDWGQGTQVTVSS VL: ATMLTQSPGSLSVVPGESASISCKTSQGLVHSDGKTYFYWFLQKPGQSPQQLIYQVSNRASGVPDRFTGSGSGTDFTLKISGVKAEDAGVYYCAHGTYYPHTFGSGTRLEIK",Ka (native human ApoC3 [10]): 3.35e+06 M⁻¹; koff (native human ApoC3 [10]): 0.0127 s⁻¹; kon (native human ApoC3 [10]): 42700 M⁻¹ s⁻¹; Kd [2]: 0.98 nM
–,–,–,–,–,–,–,–,–,–,–,–,–,3.77e-05,178000,0.000203,155000,"5E5VH5_VLWT human IgG1 (antibody, V domains shown) VH: QLQLVESGGGLVQPGGSLRLSCAASGFTFGTYSMRWVRQVPRKALEWVSSIHTDGGGTAYRDSVKGRFTISRDNAKNTLYLQMNNLKPEDTAIYYCVIAGYSDWGQGTQVTVSS VL: ATMLTQSPGSLSVVPGESASISCKTSQGLVHSDGKTYFYWFLQKPGQSPQQLIYQVSNRASGVPDRFTGSGSGTDFTLKISGVKAEDAGVYYCAQGTYYPHTFGSGTRLEIK",–
–,–,–,–,–,–,–,–,–,–,–,–,–,0.000305,61600,0.00316,156000,"5E5VH5VH12_VLWT human IgG1 (antibody, V domains shown) VH: QLQLVESGGGLVQPGGSLRLSCAASGFTFGTYSMRWVRQVPRKALEWVSSIHTDGGGTAYRDSVKGRFTISRDNAKNTLYLQMNNLKPEDTAIYYCVIHGYSDWGQGTQVTVSS VL: ATMLTQSPGSLSVVPGESASISCKTSQGLVHSDGKTYFYWFLQKPGQSPQQLIYQVSNRASGVPDRFTGSGSGTDFTLKISGVKAEDAGVYYCAQGTYYPHTFGSGTRLEIK",–
